B1: humanized 9-8F2-B11, VH3VL3 combination (antibody, V domains shown)
VH: QVQLVQSGAEVKKPGASVKVSCKASGFNIKETYVHWVRQAPGQGLEWMGRIDPAIGDSEYAQKFQGRVTMTRDTSISTAYMELSRLRSDDTAVYYCARTWGPFFDFWGQGTLVTVSS
VL: DIVMTQTPLSLSVTPGQPASISCKSSQSLLHSHGNTFLHWYLQKPGQSPQVLIYKVSSRFSGVPDRFSGSGSGTDFTLKISRVEAEDVGVYYCSQSTHVPYTFGQGTKLEIK
B2: murine 9-8F2-B11 (antibody, V domains shown)
VH: EVQLQQSGAELVKPGASVKLSCTASGFNIKETYVHWVKQRPEQGLEWIGRIDHAIGDSEYDPKFQGKATVTADTSSNTAYLQLSRLTSEDTAVYYCARTWGPFFDFWGQGTTVTVSS
VL: DVVMTQTPLSLPVSLGDQASISCRSSQSLVHSHGNTFLHWYLQKPGQSPKVLIYKVSSRFSGVPDRFSGSGAGTDFTLKISRVEAEDLGVYFCSQSTHVPYTFGGGTKLEIK

How the values were obtained:
[1] = biological target: T1, WT RBD-6xHis (receptor-binding domain of the SARS-CoV-2 spike protein) (SARS-CoV-2, UniProt P0DTC2); assay: BLI
[2] = biological target: T1, WT RBD-6xHis (receptor-binding domain …); assay: ELISA

Row | Binder | Kd [1] | EC50 [2]
1 | B1 | 2.26 nM | –
2 | B2 | 0.913 nM | 0.0137 ng/mL

From paper PMC10801580 (2024)
